From patent US20220242974A1 (QURE BIOTECHNOLOGY SHANGHAI, published 2022)

B1: QP1125 nanobody (VHH)
VHH: QVQLVESGGGLVQPGGSLRLSCTAPGFTDKTCAMAWYRQVAGIEREWVSSISTLGTTNYASSVKGRFTISKDNAKDTVYLQMNNLKPEDTAMYVCKTFSCRNRGGSYLPDTWGQGTQVTVSS
notes: as m59
B2: QP1127 nanobody (VHH)
VHH: QVQLVESGGGSVQSGGSLTLSCAISGYAYATYSMAWFRQAHGKEREGVAAINSDGHTTYVDSVKGRFTISRDNTNKNSYTLTLTMNNLNPEDTAMYYCAATSQLGFWAQKLWEAIRDGTWSPSTTDFGFWGRGTQVTVSS
notes: as m59
B3: QP1128 nanobody (VHH)
VHH: QVQLVESGGGSVQSGGSLRLSCAASGYTASAYYMAWFRQNSRKQREGVAAINRDGDTKYADSVKGRFTISRDDAKNTLYLQMNSLKPEDTAVYYCAASDWSRLYKIYWLDDNYYVRWGQGTQVTVSS
notes: as m59

Biological target: PD-L1-his fusion protein (Homo sapiens (Human), UniProt Q9NZQ7 19-238)
Assay: ELISA, PD-L1-his coated, culture supernatant of the clone

Chain of PD-L1-his fusion protein (Q9NZQ7 other isoform, or with tags, fused parts or gaps limits assumed): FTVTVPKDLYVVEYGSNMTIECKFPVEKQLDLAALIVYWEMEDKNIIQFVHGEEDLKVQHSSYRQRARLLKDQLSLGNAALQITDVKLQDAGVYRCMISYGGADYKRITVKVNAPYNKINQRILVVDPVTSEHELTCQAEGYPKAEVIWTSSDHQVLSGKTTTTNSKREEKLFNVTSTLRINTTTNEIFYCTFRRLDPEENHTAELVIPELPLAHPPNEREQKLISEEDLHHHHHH

Binding result, binds:
B1
B2
B3
